Columns and labels:
[1] = biological target: UPP-G224L, recombinant (Arabidopsis thaliana); assay: SEC
[2] = biological target: Arabidopsis uracil phosphoribosyltransferase (UPP), wild type, recombinant (Arabidopsis thaliana); assay: SEC

In the case of UPP-G224L, recombinant (enzyme), the stoichiometry N [1] is reported as 2.

“Arabidopsis uracil phosphoribosyltransferase (UPP), wild type, recombinant (enzyme)” showed a stoichiometry N [2] of 4.

Source: paper doi:10.1101/2023.08.28.555145
